Tests used:
[1] = Protein content in vitreous body during two weeks of eye dropping (ELISA, anti-His tag antibody); type: in vivo, New Zealand big-eared rabbits (Oryctolagus cuniculus); details: New Zealand big-ear rabbits; protein not fused with TTR
Experimental: (§1) The purified TTR protein (at a concentration of 4 μmol/L) prepared in Example 1 after removal of endotoxin and bacteria was subject to treating healthy SD rats (Rattus norregicus) (6 weeks old) and New Zealand big-eared rabbits (Oryctolagus cuniculus) (2 months old, about 2.5 kg) by means of eye dropping, the left eye was the sample eye dropped with the protein, and the right eye was the blank control eye dropped with saline. The protein was administered 1-3 times per day at a dosage of 0.4-0.8 nmol. Two weeks later, the eyeball was removed and separated to obtain the vitreous body sample. It was preliminarily verified by western-blot method (FIG. 7A) that TTR can enter the vitreous cavity from the ocular surface.
(§2) The purified TTR-GFP protein (at a concentration of 4 μmol/L) prepared in Example 2 after removal of endotoxin and bacteria was subject to treating healthy SD rats (Rattus norregicus) (6 weeks old) and New Zealand big-eared rabbits (Oryctolagus cuniculus) (2 months old, about 2.5 kg) by means of eye dropping, the left eye was the sample eye dropped with the protein, and the right eye was the blank control eye dropped with saline. The protein was administered 1-3 times per day at a dosage of 0.4-0.8 nmol. […] The content of TTR-GFP in the vitreous body sample was determined by ELISA with the anti-His tag antibody as the primary antibody (Table 10 and 11). […]

[2] = as above; type: in vivo, SD rats (Rattus norregicus); details: SD rats; protein not fused with TTR
Experimental: as §1, §2

For “Lysozyme: Lysozyme protein (Genbank Accession No.: AAL69327.1) not fused with TTR”, the “entering the vitreous body after eye dropping (in words)” value [1] was “did not enter” and the “entering the vitreous body after eye dropping (in words)” value [2] was “did not enter”.

Source: US20220168434A1, “APPLICATION OF TRANSTHYRETIN IN ENTERING EYE AND PREPARING DROP” (YIZHOU (SHANGHAI) BIOLOGICAL MEDICINE CO, LTD., priority 2019, published 2022)
